Results from article doi:10.1101/2024.10.18.618978v3.

Tested on: NCCCNCCCCNCCCN
Assay: colorimetric DTNB SSAT assay
Format: biochemical, Homo sapiens
Conditions: 0.25 mM AcCoA, pH 7.5, 37 °C

Substance: SAT1 (Homo sapiens)
- Km: 73.10 ± 8.328 µM
